Measured values from IntAct's records for PubMed 16814718.

B1: Recombination protein 107 (Saccharomyces cerevisiae), P21651 (parent)
chain: MVARGRTDEISTDVSEANSEHSLMITETSSPFRSIFSHSGKVANAGALEESDKQILEWAGKLELESMELRENSDKLIKVLNENSKTLCKSLNKFNQLLEQDAATNGNVKTLIKDLASQIENQLDKVSTAMLSKGDEKKTKSDSSYRQVLVEEISRYNSKITRHVTNKQHETEKSMRCTQEMLFNVGSQLEDVHKVLLSLSKDMHSLQTRQTALEMAFREKADHAYDRPDVSLNGTTLLHDMDEAHDKQRKKSVPPPRMMVTRSMKRRRSSSPTLSTSQNHNSEDNDDASHRLKRAARTIIPWEELRPDTLESEL
partner: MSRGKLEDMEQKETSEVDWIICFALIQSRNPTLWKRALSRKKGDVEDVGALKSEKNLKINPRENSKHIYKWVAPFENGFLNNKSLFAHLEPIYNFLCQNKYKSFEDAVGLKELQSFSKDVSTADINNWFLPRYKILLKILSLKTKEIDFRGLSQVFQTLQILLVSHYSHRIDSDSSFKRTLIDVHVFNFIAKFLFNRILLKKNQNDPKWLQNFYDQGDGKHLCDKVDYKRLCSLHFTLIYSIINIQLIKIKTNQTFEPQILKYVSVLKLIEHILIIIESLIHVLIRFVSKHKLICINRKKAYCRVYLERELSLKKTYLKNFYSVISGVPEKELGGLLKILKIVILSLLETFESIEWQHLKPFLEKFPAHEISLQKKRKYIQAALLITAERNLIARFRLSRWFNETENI
B2: Recombination protein 107 (Saccharomyces cerevisiae), P21651 (parent)
chain: B1 chain
partner: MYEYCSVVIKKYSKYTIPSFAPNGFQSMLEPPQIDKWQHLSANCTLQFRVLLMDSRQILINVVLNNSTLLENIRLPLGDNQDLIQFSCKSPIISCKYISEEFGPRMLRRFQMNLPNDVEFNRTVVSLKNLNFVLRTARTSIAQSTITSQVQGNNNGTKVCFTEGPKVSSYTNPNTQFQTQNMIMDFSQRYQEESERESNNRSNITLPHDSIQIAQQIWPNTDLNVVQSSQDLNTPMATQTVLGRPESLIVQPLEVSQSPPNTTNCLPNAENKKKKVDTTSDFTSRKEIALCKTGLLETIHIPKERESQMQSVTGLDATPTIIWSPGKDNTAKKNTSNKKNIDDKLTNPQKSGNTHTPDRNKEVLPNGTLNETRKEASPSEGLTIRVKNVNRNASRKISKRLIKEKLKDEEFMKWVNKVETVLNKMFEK
B3: Recombination protein 107 (Saccharomyces cerevisiae), P21651 (parent)
chain: B1 chain
partner: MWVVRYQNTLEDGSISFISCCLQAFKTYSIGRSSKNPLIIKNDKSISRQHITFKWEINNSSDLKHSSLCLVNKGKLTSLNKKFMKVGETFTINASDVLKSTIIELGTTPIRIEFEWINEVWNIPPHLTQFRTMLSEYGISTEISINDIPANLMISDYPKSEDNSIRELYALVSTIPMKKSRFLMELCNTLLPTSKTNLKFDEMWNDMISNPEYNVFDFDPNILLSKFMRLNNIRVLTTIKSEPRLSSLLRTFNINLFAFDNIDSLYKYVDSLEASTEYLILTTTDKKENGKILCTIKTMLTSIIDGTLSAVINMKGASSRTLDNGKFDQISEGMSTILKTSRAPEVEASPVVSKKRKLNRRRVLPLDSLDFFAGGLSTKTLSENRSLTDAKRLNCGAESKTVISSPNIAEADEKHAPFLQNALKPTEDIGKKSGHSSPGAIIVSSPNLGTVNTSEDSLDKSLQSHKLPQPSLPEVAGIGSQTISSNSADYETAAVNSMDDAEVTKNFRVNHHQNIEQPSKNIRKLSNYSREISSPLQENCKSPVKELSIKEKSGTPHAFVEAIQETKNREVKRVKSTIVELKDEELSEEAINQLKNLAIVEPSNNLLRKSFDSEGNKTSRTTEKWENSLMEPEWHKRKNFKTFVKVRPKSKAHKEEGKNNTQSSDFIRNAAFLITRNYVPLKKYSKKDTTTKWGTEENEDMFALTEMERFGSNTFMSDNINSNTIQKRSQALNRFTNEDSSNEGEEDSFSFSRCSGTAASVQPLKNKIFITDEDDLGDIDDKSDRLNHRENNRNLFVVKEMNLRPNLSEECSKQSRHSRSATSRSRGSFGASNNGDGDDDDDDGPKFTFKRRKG

Variants of: B1
Settings: with mei4_yeast MEI4, P29467

Row | Variant | effect of a mutation on the interaction
1 | MVARGRTDEISTDVSEANSEHSLMITETSSPFRSIFSHSGKVANAGALEESDKQILEWAGKLELESMELRENSDKLIKVLNENSKTLCKSLNKFNQLLEQDAATNGNVKTLIKDLASQIENQLDKVSTAMLSKGDEKKTKSDSSYRQVLVEEISRYNSKITRHVTNKQHETEKSMRCTQEMLFNVGSQLEDVHKVLLSLSKDMHSLQTRQTALEMAFREKADHAYDRPDVSLNGTTLLHDMDEAHDKQRKKSVPPPRMMVTRSMKRRRSSAPTLSTSQNHNSEDNDDASHRLKRAARTIIPWEELRPDTLESEL [S271A] | with no effect
2 | MVARGRTDEISTDVSEANSEHSLMITETSAPFRSIFSHSGKVANAGALEESDKQILEWAGKLELESMELRENSDKLIKVLNENSKTLCKSLNKFNQLLEQDAATNGNVKTLIKDLASQIENQLDKVSTAMLSKGDEKKTKSDSSYRQVLVEEISRYNSKITRHVTNKQHETEKSMRCTQEMLFNVGSQLEDVHKVLLSLSKDMHSLQTRQTALEMAFREKADHAYDRPDVSLNGTTLLHDMDEAHDKQRKKSVPPPRMMVTRSMKRRRSSAPTLSTSQNHNSEDNDDASHRLKRAARTIIPWEELRPDTLESEL [S30A;S271A] | decreasing interaction strength
3 | MVARGRTDEISTDVSEANSEHSLMITETSAPFRSIFSHSGKVANAGALEESDKQILEWAGKLELESMELRENSDKLIKVLNENSKTLCKSLNKFNQLLEQDAATNGNVKTLIKDLASQIENQLDKVSTAMLSKGDEKKTKSDSSYRQVLVEEISRYNSKITRHVTNKQHETEKSMRCTQEMLFNVGSQLEDVHKVLLSLSKDMHSLQTRQTALEMAFREKADHAYDRPDVSLNGTTLLHDMDEAHDKQRKKSVPPPRMMVTRSMKRRRSSSPTLSTSQNHNSEDNDDASHRLKRAARTIIPWEELRPDTLESEL [S30A] | decreasing interaction strength

Variants of: B2
Settings: with re114_yeast REC114, P32841

Row | Variant | effect of a mutation on the interaction
4 | MVARGRTDEISTDVSEANSEHSLMITETSAPFRSIFSHSGKVANAGALEESDKQILEWAGKLELESMELRENSDKLIKVLNENSKTLCKSLNKFNQLLEQDAATNGNVKTLIKDLASQIENQLDKVSTAMLSKGDEKKTKSDSSYRQVLVEEISRYNSKITRHVTNKQHETEKSMRCTQEMLFNVGSQLEDVHKVLLSLSKDMHSLQTRQTALEMAFREKADHAYDRPDVSLNGTTLLHDMDEAHDKQRKKSVPPPRMMVTRSMKRRRSSSPTLSTSQNHNSEDNDDASHRLKRAARTIIPWEELRPDTLESEL [S30A] | disrupting interaction strength
5 | MVARGRTDEISTDVSEANSEHSLMITETSAPFRSIFSHSGKVANAGALEESDKQILEWAGKLELESMELRENSDKLIKVLNENSKTLCKSLNKFNQLLEQDAATNGNVKTLIKDLASQIENQLDKVSTAMLSKGDEKKTKSDSSYRQVLVEEISRYNSKITRHVTNKQHETEKSMRCTQEMLFNVGSQLEDVHKVLLSLSKDMHSLQTRQTALEMAFREKADHAYDRPDVSLNGTTLLHDMDEAHDKQRKKSVPPPRMMVTRSMKRRRSSAPTLSTSQNHNSEDNDDASHRLKRAARTIIPWEELRPDTLESEL [S30A;S271A] | disrupting interaction strength
6 | MVARGRTDEISTDVSEANSEHSLMITETSSPFRSIFSHSGKVANAGALEESDKQILEWAGKLELESMELRENSDKLIKVLNENSKTLCKSLNKFNQLLEQDAATNGNVKTLIKDLASQIENQLDKVSTAMLSKGDEKKTKSDSSYRQVLVEEISRYNSKITRHVTNKQHETEKSMRCTQEMLFNVGSQLEDVHKVLLSLSKDMHSLQTRQTALEMAFREKADHAYDRPDVSLNGTTLLHDMDEAHDKQRKKSVPPPRMMVTRSMKRRRSSAPTLSTSQNHNSEDNDDASHRLKRAARTIIPWEELRPDTLESEL [S271A] | with no effect

Variants of: B3
Settings: with xrs2_yeast XRS2, P33301

Row | Variant | effect of a mutation on the interaction
7 | MVARGRTDEISTDVSEANSEHSLMITETSAPFRSIFSHSGKVANAGALEESDKQILEWAGKLELESMELRENSDKLIKVLNENSKTLCKSLNKFNQLLEQDAATNGNVKTLIKDLASQIENQLDKVSTAMLSKGDEKKTKSDSSYRQVLVEEISRYNSKITRHVTNKQHETEKSMRCTQEMLFNVGSQLEDVHKVLLSLSKDMHSLQTRQTALEMAFREKADHAYDRPDVSLNGTTLLHDMDEAHDKQRKKSVPPPRMMVTRSMKRRRSSSPTLSTSQNHNSEDNDDASHRLKRAARTIIPWEELRPDTLESEL [S30A] | disrupting interaction strength
8 | MVARGRTDEISTDVSEANSEHSLMITETSAPFRSIFSHSGKVANAGALEESDKQILEWAGKLELESMELRENSDKLIKVLNENSKTLCKSLNKFNQLLEQDAATNGNVKTLIKDLASQIENQLDKVSTAMLSKGDEKKTKSDSSYRQVLVEEISRYNSKITRHVTNKQHETEKSMRCTQEMLFNVGSQLEDVHKVLLSLSKDMHSLQTRQTALEMAFREKADHAYDRPDVSLNGTTLLHDMDEAHDKQRKKSVPPPRMMVTRSMKRRRSSAPTLSTSQNHNSEDNDDASHRLKRAARTIIPWEELRPDTLESEL [S30A;S271A] | disrupting interaction strength
9 | MVARGRTDEISTDVSEANSEHSLMITETSSPFRSIFSHSGKVANAGALEESDKQILEWAGKLELESMELRENSDKLIKVLNENSKTLCKSLNKFNQLLEQDAATNGNVKTLIKDLASQIENQLDKVSTAMLSKGDEKKTKSDSSYRQVLVEEISRYNSKITRHVTNKQHETEKSMRCTQEMLFNVGSQLEDVHKVLLSLSKDMHSLQTRQTALEMAFREKADHAYDRPDVSLNGTTLLHDMDEAHDKQRKKSVPPPRMMVTRSMKRRRSSAPTLSTSQNHNSEDNDDASHRLKRAARTIIPWEELRPDTLESEL [S271A] | decreasing interaction strength
